The values that follow come from patent publication US20250277023A1 (published 2025).

The target of assay [1] is T1, PD-L1 (on CHO-PD-L1 cells) (UniProt Q9NZQ7 19-290). Nature of the assay: FACS binding; Fig. 23. A general note: Flow cytometry measures light scatter and fluorescence of single cells or particles in a stream.
In another assay the target is IL15R. Nature of the assay: FACS binding; Fig. 29.
Assay [2] deals with T2, TIGIT (on CHO-TIGIT cells) (UniProt Q495A1 22-244).
T2 chain: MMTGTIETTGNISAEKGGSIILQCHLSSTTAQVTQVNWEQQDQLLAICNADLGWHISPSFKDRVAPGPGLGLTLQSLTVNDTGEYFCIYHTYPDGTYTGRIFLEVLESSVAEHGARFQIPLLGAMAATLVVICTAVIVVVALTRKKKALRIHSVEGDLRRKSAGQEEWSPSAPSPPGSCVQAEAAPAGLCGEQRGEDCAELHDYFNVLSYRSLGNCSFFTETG
Nature of the assay: FACS binding; Fig. 17.

Assay [3] deals with T1, PD-L1 (on CHO-PD-L1 cells). Nature of the assay: FACS binding; Fig. 21.
Assay [4] concerns the target T1, PD-L1 (on CHO-PD-L1 cells). Nature of the assay: FACS binding; Fig. 22.

T1 sequence (Q9NZQ7 19-290): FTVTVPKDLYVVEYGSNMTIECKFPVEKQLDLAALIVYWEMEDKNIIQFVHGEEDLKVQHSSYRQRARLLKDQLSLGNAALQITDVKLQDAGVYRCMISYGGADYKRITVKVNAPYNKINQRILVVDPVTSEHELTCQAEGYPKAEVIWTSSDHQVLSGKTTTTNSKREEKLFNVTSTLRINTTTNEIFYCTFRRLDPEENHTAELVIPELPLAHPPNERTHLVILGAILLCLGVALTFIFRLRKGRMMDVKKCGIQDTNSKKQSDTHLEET

B1: R1042: PD-L1_VH_IL15RA/TIGIT_VL_IL15/TIGIT_VH/PD-L1-VL (bispecific antibody)
chain 1: EVQLLESGGGLVQPGGSLRLSCAASGFTFSSYIMMWVRQAPGKGLEWVSSIYPSGGITFYADTVKGRFTISRDNSKNTLYLQMNSLRAEDTAVYYCARIKLGTVTTVDYWGQGTLVTVSSGGGGSGGGGSGGGGSGGGGSGITCPPPMSVEHADIWVKSYSLYSRERYICNSGFKRKAGTSSLTECVLNKATNVAHWTTPSLKCIRDPALVHQRPAPPSTVTTAGVTPQPESLSPSGKEPAASSPSSNNTAATTAAIVPGSQLMPSKSPSTGTTEISSHESSHGTPSQTTAKNWELTASASHQPPGVYPQGHSDTTEPRGPTIKPCPPCKCPAPNLLGGPSVFIFPPKIKDVLMISLSPIVTCVVVDVSEDDPDVQISWFVNNVEVHTAQTQTHREDYNSTLRVVSALPIQHQDWMSGKEFKCKVNNKDLPAPIERTISKPKGSVRAPQVYVLPPPEEEMTKKQVTLWCMVTDFMPEDIYVEWTNNGKTELNYDNTEPVLDSDGSYFMYSDLRVEKKNWVERNSYSCSVVHEGLHNHHTTKSFSRTPGK
chain 2: not shown
heavy: QVQLESEGGLFKPTDTLTLTCTVSGSSLSSSYMSWVRQAPGKGLEWIGIIGSNGNTYYANWAKGRFTISKTSTTVELKITSPTTEDTATYFCARGGYRTSGMDPWGPGTLVTVSSAKTTAPSVYPLAPVCGDTTGSSVTLGCLVKGYFPEPVTLTWNSGSLSSGVHTFPAVLQSDLYTLSSSVTVTSSTWPSQSITCNVAHPASSTKVDKKIEPRGPTIKPCPPCKCPAPNLLGGPSVFIFPPKIKDVLMISLSPIVTCVVVDVSEDDPDVQISWFVNNVEVHTAQTQTHREDYNSTLRVVSALPIQHQDWMSGKEFKCKVNNKDLPAPIERTISKPKGSVRAPQVYVLPPPEEEMTKKQVTLTCRVTDFMPEDIYVEWTNNGKTELNYKNTEPVLKSDGSYFMASKLRVEKKNWVERNSYSCSVVHEGLHNHHTTKSFSRTPGK
light: QSALTQPASVSGSPGQSITISCTGTSSDVGGYNYVSWYQQHPGKAPKLMIYDVSNRPSGVSNRFSGSKSGNTASLTISGLQAEDEADYYCSSYTSSSTRVFGTGTKVTVLRTDAAPTVSIFPPSSEQLTSGGASVVCFLNNFYPKDINVKWKIDGSERQNGVLNSWTDQDSKDSTYSMSSTLTLTKDEYERHNSYTCEATHKTSTSPIVKSFNRNEC
By EC50 is commonly meant the midpoint of the concentration-response curve. A low value points to an effect from little substance. Molecule B1 came in with a 50% effective concentration (EC50) in assay [1] of 7.29 nM.

B2: R1042 (bispecific antibody)
chain 1: B1 chain 1
chain 2: not shown
heavy: B1 heavy
light: B1 light
In turn, B2 returned an EC50 with IL15R of 0.862 nM.

B3: R0774 (Tigit monoclonal antibody) (antibody, V domains shown)
VH: QVQLVQSGAEVKKPGSSVKVSCKASGYSFTSYWMNWVRQAPGQGLEWIGMIRPSDSETRLNQMFKDRVTITVDKSTSTAYMELSSLRSEDTAVYYCAGIHDYGHGAYWGQGTLVTVSS
VL: DIQMTQSPSSLSASVGDRVTITCRASENIYSNLAWYQQKPGKSPKLLVYAASHLPDGVPSRFSGSGSGTDYSLTISSLQPEDFATYYCQHFWGTPRTFGQGTKLEIK
On to B3, for which, in assay [2], the EC50 turned out to be 0.678 nM.

B4: R1043 (bispecific antibody)
chain 1: QVQLESEGGLFKPTDTLTLTCTVSGSSLSSSYMSWVRQAPGKGLEWIGIIGSNGNTYYANWAKGRFTISKTSTTVELKITSPTTEDTATYFCARGGYRTSGMDPWGPGTLVTVSSGGGGSGGGGSGGGGSGGGGSGITCPPPMSVEHADIWVKSYSLYSRERYICNSGFKRKAGTSSLTECVLNKATNVAHWTTPSLKCIRDPALVHQRPAPPSTVTTAGVTPQPESLSPSGKEPAASSPSSNNTAATTAAIVPGSQLMPSKSPSTGTTEISSHESSHGTPSQTTAKNWELTASASHQPPGVYPQGHSDTTEPRGPTIKPCPPCKCPAPNLLGGPSVFIFPPKIKDVLMISLSPIVTCVVVDVSEDDPDVQISWFVNNVEVHTAQTQTHREDYNSTLRVVSALPIQHQDWMSGKEFKCKVNNKDLPAPIERTISKPKGSVRAPQVYVLPPPEEEMTKKQVTLWCMVTDFMPEDIYVEWTNNGKTELNYDNTEPVLDSDGSYFMYSDLRVEKKNWVERNSYSCSVVHEGLHNHHTTKSFSRTPGK
chain 2: not shown
heavy: EVQLLESGGGLVQPGGSLRLSCAASGFTFSSYIMMWVRQAPGKGLEWVSSIYPSGGITFYADTVKGRFTISRDNSKNTLYLQMNSLRAEDTAVYYCARIKLGTVTTVDYWGQGTLVTVSSAKTTAPSVYPLAPVCGDTTGSSVTLGCLVKGYFPEPVTLTWNSGSLSSGVHTFPAVLQSDLYTLSSSVTVTSSTWPSQSITCNVAHPASSTKVDKKIEPRGPTIKPCPPCKCPAPNLLGGPSVFIFPPKIKDVLMISLSPIVTCVVVDVSEDDPDVQISWFVNNVEVHTAQTQTHREDYNSTLRVVSALPIQHQDWMSGKEFKCKVNNKDLPAPIERTISKPKGSVRAPQVYVLPPPEEEMTKKQVTLTCRVTDFMPEDIYVEWTNNGKTELNYKNTEPVLKSDGSYFMASKLRVEKKNWVERNSYSCSVVHEGLHNHHTTKSFSRTPGK
light: DIVMTQTPASVEVAVGGTVTIKCQASQSISSYLNWYQQKPGQPPKLLIYDALKLASGVPSRFSGSGSGTEYTLTISGVESADAATYYCQQEHSVGNVDNVFGGGTEVVVKRTDAAPTVSIFPPSSEQLTSGGASVVCFLNNFYPKDINVKWKIDGSERQNGVLNSWTDQDSKDSTYSMSSTLTLTKDEYERHNSYTCEATHKTSTSPIVKSFNRNEC
In the assay with IL15R, B4 yielded a concentration giving a half-maximal response (EC50) of 1.07 nM.

B5: R0950: PD-L1_VH_IL15RA/PD-L1_VL_IL15/TIGIT-Fab (bispecific antibody)
chain 1: B1 chain 1
chain 2: not shown
heavy: B1 heavy
light: B4 light
In the case of B5, the EC50 came to 0.903 nM in assay [1] and 0.571 nM in assay [3].

B6: R0952: TIGIT_VH_IL15/TIGIT_VL_IL15RA/PD-L1-Fab (bispecific antibody)
chain 1: not shown
chain 2: DIVMTQTPASVEVAVGGTVTIKCQASQSISSYLNWYQQKPGQPPKLLIYDALKLASGVPSRFSGSGSGTEYTLTISGVESADAATYYCQQEHSVGNVDNVFGGGTEVVVKGGGGSGGGGSGGGGSGGGGSGITCPPPMSVEHADIWVKSYSLYSRERYICNSGFKRKAGTSSLTECVLNKATNVAHWTTPSLKCIRDPALVHQRPAPPSTVTTAGVTPQPESLSPSGKEPAASSPSSNNTAATTAAIVPGSQLMPSKSPSTGTTEISSHESSHGTPSQTTAKNWELTASASHQPPGVYPQGHSDTT
heavy: B4 heavy
light: B1 light
In assay [3], B6 displayed a 50% effective concentration (EC50) of 0.43 nM.

B7: R0951: TIGIT_VH_IL15RA/TIGIT_VL_IL15/PD-L1-Fab (bispecific antibody)
chain 1: B4 chain 1
chain 2: not shown
heavy: B4 heavy
light: B1 light
As for B7, the response in assay [3] was half-maximal at 0.46 nM (EC50).

B8: R1123: TIGIT_VH_IL21R/TIGIT_VL_IL21/PD-L1-Fab (bispecific antibody)
chain 1: not shown
chain 2: not shown
heavy: EVQLQESGPGLVKPSETLSLTCAVYGDSITSGYWNWIRKPPGKGLEYMGYISYTGSTYQNPSLKSRITFSRDTSKNQYYLKLSSVTAADTATYYCARSRAWIRTYFDYWGQGTLVTVSSASTKGPSVFPLAPSSKSTSGGTAALGCLVKDYFPEPVTVSWNSGALTSGVHTFPAVLQSSGLYSLSSVVTVPSSSLGTQTYICNVNHKPSNTKVDKRVEPKSCDKTHTCPPCPAPELLGGPSVFLFPPKPKDTLMISRTPEVTCVVVDVSHEDPEVKFNWYVDGVEVHNAKTKPREEQYNSTYRVVSVLTVLHQDWLNGKEYKCKVSNKALPAPIEKTISKAKGQPREPQVYTLPPSREEMTKNQVSLWCLVKGFYPSDIAVEWESNGQPENNYDTTPPVLDSDGSFFLYSDLTVDKSRWQQGNVFSCSVMHEALHNHYTQKSLSLSPGK
light: EIVLTQSPDFQSVTPKEKVTITCSVSSSISSSNLHWYQQKPDQSPKLLIYGTSNLASGVPSRFSGSGSGTDFTLTINSLEAEDAATYYCQQWSSYPLTFGQGTKLEIKRTVAAPSVFIFPPSDEQLKSGTASVVCLLNNFYPREAKVQWKVDNALQSGNSQESVTEQDSKDSTYSLSSTLTLSKADYEKHKVYACEVTHQGLSSPVTKSFNRGEC
As to B8, the EC50 was found to be 5.22 nM in assay [4] and 2.89 nM in assay [2].
